In patent US20260242478A1 (published 2026):
Where no end group is shown, it is not given here.

Biological target: T1, Anti-PSMA Fab
T1 construct: Biotinylated and captured on neutravidin plates in the phage ELISA; also called 006 PSMA Fab
Experiment: clonal phage ELISA; biotinylated anti-PSMA Fab on neutravidin plate; anti-M13 HRP detection; no PSMA added
Protocol: (§1) Clonal phage were harvested as crude supernatants and screened via standard ELISAs. […] Prior to the addition of clonal phage. wells were incubated with blocking buffer and PSMA antigen or blocking buffer alone. Without washing or aspirating, clonal phage supernatants were then added to the wells and incubated for a short time. Wells were then washed followed by detection of bound phage using a horse radish conjugated anti-M13 antibody.

| Binder | Phage binding ELISA signal, Anti-PSMA Fab |
| --- | --- |
| HDYACVPKWMCEGL [Phage-3621] | 1.57 |
| DERMCVPEWMCMGM [Phage-3620] | 1.57 |
| YMMKCIPEWMCTGL [Phage-3622] | 1.56 |
| ADHMCVPQWMCSGF [Phage-3619] | 1.57 |
| VVAVCKPLWMCEAF [Phage-3618] | 1.57 |

Biological target: T2, PSMA Fab
T2 construct: also called Anti-PSMA Fab; 006 PSMA Fab
Experiment: clonal phage ELISA; biotinylated PSMA Fab on neutravidin plate, wells first incubated with PSMA antigen as competitor; anti-M13 HRP detection
Protocol: as §1

| Binder | phage binding ELISA signal, Anti-PSMA Fab in the presence of PSMA |
| --- | --- |
| LEAACRPMWMCLGF (cysteine pairing not given here; also: fused to pIII of bacteriophage) [Phage-3466] | 0.0664 |
| WEARCQPTWMCTGF (cysteine pairing not given here; also: fused to pIII of bacteriophage) [Phage-3467] | 0.0667 |
| EIKHCIPEWMCSGF (cysteine pairing not given here; also: fused to pIII of bacteriophage) [Phage-3464] | 0.104 |
| QEVWCRPIWMCEGF [Phage-3472] | 0.109 |
| EDRICEPDWMCAGF [Phage-3475] | 0.105 |
| SVPSCVPPWMCIGF [Phage-3471] | 0.0613 |
| ETHFCKPKWMCVGF (cysteine pairing not given here; also: fused to pIII of bacteriophage) [Phage-3465] | 0.0927 |
| VDQVCIPDWMCNGF [Phage-3470] | 0.0771 |
| TNPMCVPEWMCYGF [Phage-3468] | 0.0628 |
| LERACKPMWMCEGF [Phage-3474] | 0.0863 |
| EIVKCVPPWMCSGI [Phage-3469] | 0.0727 |
| EGTWCRPAWMCDGF [Phage-3473] | 0.0819 |
| EVLLCKPEWMCTGF (cysteine pairing not given here; also: fused to pIII of bacteriophage) [Phage-3463] | 0.0669 |

Biological target: T2, PSMA Fab
Experiment: clonal phage ELISA; biotinylated PSMA Fab on neutravidin plate, blocking buffer alone; anti-M13 HRP detection;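 note: crude clonal phage supernatants added without washing to wells pretreated with blocking buffer with or without PSMA antigen, short incubation, then washed before detecting bound phage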
Protocol: as §1

| Binder | Phage binding ELISA signal, Anti-PSMA Fab |
| --- | --- |
| LEAACRPMWMCLGF (cysteine pairing not given here; also: fused to pIII of bacteriophage) [Phage-3466] | 1.73 |
| WEARCQPTWMCTGF (cysteine pairing not given here; also: fused to pIII of bacteriophage) [Phage-3467] | 1.73 |
| EIKHCIPEWMCSGF (cysteine pairing not given here; also: fused to pIII of bacteriophage) [Phage-3464] | 1.74 |
| QEVWCRPIWMCEGF [Phage-3472] | 1.73 |
| EDRICEPDWMCAGF [Phage-3475] | 1.73 |
| SVPSCVPPWMCIGF [Phage-3471] | 1.73 |
| ETHFCKPKWMCVGF (cysteine pairing not given here; also: fused to pIII of bacteriophage) [Phage-3465] | 1.74 |
| VDQVCIPDWMCNGF [Phage-3470] | 1.73 |
| TNPMCVPEWMCYGF [Phage-3468] | 1.73 |
| LERACKPMWMCEGF [Phage-3474] | 1.73 |
| EIVKCVPPWMCSGI [Phage-3469] | 1.73 |
| EGTWCRPAWMCDGF [Phage-3473] | 1.73 |
| EVLLCKPEWMCTGF (cysteine pairing not given here; also: fused to pIII of bacteriophage) [Phage-3463] | 1.74 |

Biological target: T1, Anti-PSMA Fab
Experiment: clonal phage ELISA; biotinylated anti-PSMA Fab on neutravidin plate; anti-M13 HRP detection; competitor: PSMA antigen pre-added
Protocol: as §1

| Binder | Phage binding ELISA signal, Anti-PSMA Fab with PSMA antigen |
| --- | --- |
| HDYACVPKWMCEGL [Phage-3621] | 0.0818 |
| DERMCVPEWMCMGM [Phage-3620] | 0.0714 |
| YMMKCIPEWMCTGL [Phage-3622] | 0.0662 |
| ADHMCVPQWMCSGF [Phage-3619] | 0.103 |
| VVAVCKPLWMCEAF [Phage-3618] | 0.062 |
